Experimental data reported in IntAct's records for PubMed 12681510.

B1: Rho guanine nucleotide exchange factor 1 (Homo sapiens), Q92888 (parent)
chain: MEDFARGAASPGPSRPGLVPVSIIGAEDEDFENELETNSEEQNSQFQSLEQVKRRPAHLMALLQHVALQFEPGPLLCCLHADMLGSLGPKEAKKAFLDFYHSFLEKTAVLRVPVPPNVAFELDRTRADLISEDVQRRFVQEVVQSQQVAVGRQLEDFRSKRLMGMTPWEQELAQLEAWVGRDRASYEARERHVAERLLMHLEEMQHTISTDEEKSAAVVNAIGLYMRHLGVRTKSGDKKSGRNFFRKKVMGNRRSDEPAKTKKGLSSILDAARWNRGEPQVPDFRHLKAEVDAEKPGATDRKGGVGMPSRDRNIGAPGQDTPGVSLHPLSLDSPDREPGADAPLELGDSSPQGPMSLESLAPPESTDEGAETESPEPGDEGEPGRSGLELEPEEPPGWRELVPPDTLHSLPKSQVKRQEVISELLVTEAAHVRMLRVLHDLFFQPMAECLFFPLEELQNIFPSLDELIEVHSLFLDRLMKRRQESGYLIEEIGDVLLARFDGAEGSWFQKISSRFCSRQSFALEQLKAKQRKDPRFCAFVQEAESRPRCRRLQLKDMIPTEMQRLTKYPLLLQSIGQNTEEPTEREKVELAAECCREILHHVNQAVRDMEDLLRLKDYQRRLDLSHLRQSSDPMLSEFKNLDITKKKLVHEGPLTWRVTKDKAVEVHVLLLDDLLLLLQRQDERLLLKSHSRTLTPTPDGKTMLRPVLRLTSAMTREVATDHKAFYVLFTWDQEAQIYELVAQTVSERKNWCALITETAGSLKVPAPASRPKPRPSPSSTREPLLSSSENGNGGRETSPADARTERILSDLLPFCRPGPEGQLAATALRKVLSLKQLLFPAEEDNGAGPPRDGDGVPGGGPLSPARTQEIQENLLSLEETMKQLEELEEEFCRLRPLLSQLGGNSVPQPGCT

Variants of: B1
Settings: with gna13_human GNA13, Q14344
Chain of gna13_human GNA13, Q14344 (Q14344 whole entry): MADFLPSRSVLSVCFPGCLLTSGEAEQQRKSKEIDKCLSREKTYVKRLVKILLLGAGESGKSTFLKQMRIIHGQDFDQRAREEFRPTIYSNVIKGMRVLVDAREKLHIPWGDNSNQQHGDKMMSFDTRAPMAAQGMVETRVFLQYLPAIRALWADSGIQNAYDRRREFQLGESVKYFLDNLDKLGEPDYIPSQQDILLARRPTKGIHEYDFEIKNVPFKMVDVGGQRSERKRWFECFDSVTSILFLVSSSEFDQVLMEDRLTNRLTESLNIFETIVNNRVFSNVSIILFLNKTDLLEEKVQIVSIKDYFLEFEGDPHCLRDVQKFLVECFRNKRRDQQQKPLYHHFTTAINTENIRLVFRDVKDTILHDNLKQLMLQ

effect of a mutation on the interaction	Variant
decreasing interaction	E27A;E29A

Variants of: B1
Settings: with gna13_human GNA13, Q14344
Remark: another data set of the same source

effect of a mutation on the interaction	Variant
decreasing interaction	E27A;E29A
